Experimental data from article doi:10.1101/2021.04.16.440242.

Target: T1, wild-type CHIP (carboxyl terminus of Hsc70-interacting protein) (human), Q9UNE7
T1 chain: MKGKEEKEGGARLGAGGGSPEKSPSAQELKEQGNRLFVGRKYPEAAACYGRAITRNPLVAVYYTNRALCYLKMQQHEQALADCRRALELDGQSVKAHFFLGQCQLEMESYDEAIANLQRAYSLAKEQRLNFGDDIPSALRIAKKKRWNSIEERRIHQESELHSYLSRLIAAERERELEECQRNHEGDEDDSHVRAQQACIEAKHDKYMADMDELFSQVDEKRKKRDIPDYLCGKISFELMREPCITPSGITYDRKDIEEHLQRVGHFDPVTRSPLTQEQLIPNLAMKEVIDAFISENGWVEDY
Test: SEC
Conditions: remark: other sources report otherwise

B1: wild-type CHIP (carboxyl terminus of Hsc70-interacting protein), Q9UNE7 1-303 (enzyme)
chain: T1 chain
  stoichiometry N: 2
